Laboratory results taken from patent US20210253718A1 (MODMAB THERAPEUTICS, published 2021).
Changes are numbered by the printed parent chain.

T1: FZD9 cysteine-rich domain (CRD), MYC-tagged and GPI-anchored on CHO cells (human, UniProt O00144 35-161, GPI anchor)
T1 construct: also called FZD9 CRD; CHO-myc-FZDGPI; not shown: MYC tag and GPI anchor signal
T1 sequence: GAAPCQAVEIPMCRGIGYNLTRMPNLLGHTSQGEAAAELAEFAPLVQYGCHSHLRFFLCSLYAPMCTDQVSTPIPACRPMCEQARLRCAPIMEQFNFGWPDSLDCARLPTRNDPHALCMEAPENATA

T2: FZD6 cysteine-rich domain (CRD), MYC-tagged and GPI-anchored on CHO cells (human, UniProt O60353 20-146, GPI anchor)
T2 construct: also called FZD6 CRD; CHO-myc-FZDGPI; not shown: MYC tag and GPI anchor signal
T2 sequence: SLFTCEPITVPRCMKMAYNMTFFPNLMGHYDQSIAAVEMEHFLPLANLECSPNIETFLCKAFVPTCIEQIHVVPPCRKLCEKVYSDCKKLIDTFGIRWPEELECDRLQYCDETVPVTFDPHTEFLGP

T3: FZD10 cysteine-rich domain (CRD), MYC-tagged and GPI-anchored on CHO cells (human, UniProt Q9ULW2 30-156, GPI anchor)
T3 construct: also called FZD10 CRD; CHO-myc-FZDGPI; not shown: MYC tag and GPI anchor signal
T3 sequence: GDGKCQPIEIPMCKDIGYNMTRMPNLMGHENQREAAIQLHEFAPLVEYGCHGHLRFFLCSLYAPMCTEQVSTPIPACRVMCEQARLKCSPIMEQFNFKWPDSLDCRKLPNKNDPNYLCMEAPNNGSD

T4: FZD3 cysteine-rich domain (CRD), MYC-tagged and GPI-anchored on CHO cells (human, UniProt Q9NPG1 24-150, GPI anchor)
T4 construct: domain: cysteine-rich domain (CRD); also called FZD3 CRD; CHO-myc-FZDGPI; not shown: MYC tag and GPI anchor signal
T4 sequence (looked up): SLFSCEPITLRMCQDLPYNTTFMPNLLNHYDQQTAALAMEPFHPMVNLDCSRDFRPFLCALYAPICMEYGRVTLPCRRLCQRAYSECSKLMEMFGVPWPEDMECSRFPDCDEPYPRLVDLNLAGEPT

T5: FZD8 cysteine-rich domain (CRD), MYC-tagged and GPI-anchored on CHO cells (human, UniProt Q498S8 31-155 (rat entry), GPI anchor)
T5 construct: also called FZD8 CRD; CHO-myc-FZDGPI; not shown: MYC tag and GPI anchor signal
T5 sequence: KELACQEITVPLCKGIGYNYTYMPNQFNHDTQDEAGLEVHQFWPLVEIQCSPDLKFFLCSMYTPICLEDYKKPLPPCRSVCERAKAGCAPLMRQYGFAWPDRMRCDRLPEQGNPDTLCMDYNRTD

T6: FZD5 cysteine-rich domain (CRD), MYC-tagged and GPI-anchored on CHO cells (human, UniProt Q13467 29-156, GPI anchor)
T6 construct: also called FZD5 CRD; CHO-myc-FZDGPI; not shown: MYC tag and GPI anchor signal
T6 sequence: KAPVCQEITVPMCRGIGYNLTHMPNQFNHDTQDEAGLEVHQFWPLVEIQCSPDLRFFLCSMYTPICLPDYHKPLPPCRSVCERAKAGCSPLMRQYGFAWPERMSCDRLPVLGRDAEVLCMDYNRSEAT

T7: FZD4 cysteine-rich domain (CRD), MYC-tagged and GPI-anchored on CHO cells (human, UniProt Q9ULV1 42-167, GPI anchor)
T7 construct: also called FZD4 CRD; CHO-myc-FZDGPI; not shown: MYC tag and GPI anchor signal
T7 sequence: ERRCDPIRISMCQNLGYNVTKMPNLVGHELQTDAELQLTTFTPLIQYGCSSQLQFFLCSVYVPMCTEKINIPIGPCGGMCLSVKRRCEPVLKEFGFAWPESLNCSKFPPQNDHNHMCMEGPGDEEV

B1: Fab-2904 (Fab, V domains shown)
VH: EVQLVESGGGLVQPGGSLRLSCAASGFNIYSYSMHWVRQAPGKGLEWVAYISSSYGYTSYADSVKGRFTISADTSKNTAYLQMNSLRAEDTAVYYCARSWYAWAMDYWGQGTLVTVSS
VL: DIQMTQSPSSLSASVGDRVTITCRASQSVSSAVAWYQQKPGKAPKLLIYSASSLYSGVPSRFSGSRSGTDFTLTISSLQPEDFATYYCQQSSYSLITFGQGTKVEIK
notes: Fab; also called Fv-2904
B2: Fab-2930 (Fab, V domains shown)
VH: EVQLVESGGGLVQPGGSLRLSCAASGFNLSYYYIHWVRQAPGKGLEWVASIYPYSGSTSYADSVKGRFTISADTSKNTAYLQMNSLRAEDTAVYYCARGALDYWGQGTLVTVSS
VL: DIQMTQSPSSLSASVGDRVTITCRASQSVSSAVAWYQQKPGKAPKLLIYSASSLYSGVPSRFSGSRSGTDFTLTISSLQPEDFATYYCQQWYGPYLITFGQGTKVEIK
notes: Fab; also called Fv-2930
B3: Fab-2912 (Fab, V domains shown)
VH: EVQLVESGGGLVQPGGSLRLSCAASGFNISYSYIHWVRQAPGKGLEWVASISSSSGYTSYADSVKGRFTISADTSKNTAYLQMNSLRAEDTAVYYCARTVRGSKKPYFSGWAMDYWGQGTLVTVSS
VL: B2 VL with W91F, G93F
notes: Fab; also called Fv-2912
B4: Fab-2899 (Fab, V domains shown)
VH: B2 VH with S30Y, I34M, Y54S
VL: DIQMTQSPSSLSASVGDRVTITCRASQSVSSAVAWYQQKPGKAPKLLIYSASSLYSGVPSRFSGSRSGTDFTLTISSLQPEDFATYYCQQWYSSYGLITFGQGTKVEIK
notes: Fab; also called Fv-2899
B5: Fab-2907 (Fab, V domains shown)
VH: EVQLVESGGGLVQPGGSLRLSCAASGFNIYSSYMHWVRQAPGKGLEWVASISSYSGSTYYADSVKGRFTISADTSKNTAYLQMNSLRAEDTAVYYCARSSWGAYIVSYGFDYWGQGTLVTVSS
VL: B4 VL with W91V, Y92G, S93Y, S94W, Y95W
notes: Fab; also called Fv-2907
B6: Fab-2925 (Fab, V domains shown)
VH: EVQLVESGGGLVQPGGSLRLSCAASGFNLSYSSMHWVRQAPGKGLEWVASIYPSYGSTYYADSVKGRFTISADTSKNTAYLQMNSLRAEDTAVYYCARYGYFGLDYWGQGTLVTVSS
VL: B4 VL with W91A, Y92W, S93V, S94Y, Y95A, G96S, I98F
notes: Fab; also called Fv-2925
B7: Fab-2933 (Fab, V domains shown)
VH: B3 VH with I29L, S30Y, Y31S, I34M, S52Y, S55Y
VL: DIQMTQSPSSLSASVGDRVTITCRASQSVSSAVAWYQQKPGKAPKLLIYSASSLYSGVPSRFSGSRSGTDFTLTISSLQPEDFATYYCQQFWWYASWLFTFGQGTKVEIK
notes: Fab; also called Fv-2933

What was measured:
[1] = biological target: T1, FZD9 cysteine-rich domain (CRD), …; assay: immunofluorescence, CHO-CRD cells
[2] = biological target: T2, FZD6 cysteine-rich domain (CRD), …; assay: immunofluorescence, CHO-CRD cells
[3] = biological target: T3, FZD10 cysteine-rich domain (CRD), …; assay: immunofluorescence, CHO-CRD cells
[4] = biological target: T4, FZD3 cysteine-rich domain (CRD), …; assay: immunofluorescence, CHO-CRD cells
[5] = biological target: T5, FZD8 cysteine-rich domain (CRD), …; assay: flow cytometry, CHO-CRD cells;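 note: flow cytometry of Fab binding to CHO cells overexpressing a Frizzled CRD, with binding defined as median fluorescence over twice that of CHO cells lacking any Frizzled CRD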
Description: (§1) Binding was measured via flow cytometry analysis of CHO cells overexpressing CRD of FZD1, FZD2, FZD3, FZD4, FZD5, FZD6, FZD7, FZD8, FZD9 or FZD10. Median fluorescence values are shown.

[6] = biological target: T1, FZD9 cysteine-rich domain (CRD), …; assay: flow cytometry, CHO-CRD cells;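 note: flow cytometry of Fab binding to CHO cells overexpressing a Frizzled CRD, with binding defined as median fluorescence over twice that of CHO cells lacking any Frizzled CRD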
Description: as §1

[7] = biological target: FZD2 cysteine-rich domain (CRD), MYC-tagged and GPI-anchored on CHO cells (human, UniProt Q14332 35-161); assay: flow cytometry, CHO-CRD cells;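 note: flow cytometry of Fab binding to CHO cells overexpressing a Frizzled CRD, with binding defined as median fluorescence over twice that of CHO cells lacking any Frizzled CRD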
Description: as §1

[8] = biological target: T2, FZD6 cysteine-rich domain (CRD), …; assay: flow cytometry, CHO-CRD cells;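 note: flow cytometry of Fab binding to CHO cells overexpressing a Frizzled CRD, with binding defined as median fluorescence over twice that of CHO cells lacking any Frizzled CRD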
Description: as §1

[9] = biological target: T3, FZD10 cysteine-rich domain (CRD), …; assay: flow cytometry, CHO-CRD cells
Description: as §1

[10] = biological target: FZD1 cysteine-rich domain (CRD), MYC-tagged and GPI-anchored on CHO cells (human); assay: flow cytometry, CHO-CRD cells
Description: as §1

[11] = biological target: T6, FZD5 cysteine-rich domain (CRD), …; assay: flow cytometry, CHO-CRD cells
Description: as §1

[12] = biological target: T4, FZD3 cysteine-rich domain (CRD), …; assay: flow cytometry, CHO-CRD cells
Description: as §1

[13] = biological target: FZD7 cysteine-rich domain (CRD), MYC-tagged and GPI-anchored on CHO cells (human, UniProt O75084 45-169); assay: flow cytometry, CHO-CRD cells
Description: as §1

[14] = biological target: T7, FZD4 cysteine-rich domain (CRD), …; assay: flow cytometry, CHO-CRD cells
Description: as §1

[15] = biological target: T7, FZD4 cysteine-rich domain (CRD), …; assay: immunofluorescence, CHO-CRD cells

Binder | binding result [1] | binding result [2] | binding result [3] | binding result [4] | median fluorescence [5] | median fluorescence [6] | median fluorescence [7] | median fluorescence [8] | median fluorescence [9] | median fluorescence [10] | median fluorescence [11] | median fluorescence [12] | median fluorescence [13] | median fluorescence [14] | binding result [15]
B1 | no binding | no binding | no binding | no binding | 10.1 | 3.37 | 12 | 3.59 | 3.43 | 15.5 | 29.7 | 4.14 | 42.9 | – | –
B2 | no binding | no binding | no binding | no binding | 13.8 | 4.87 | – | 3.79 | 4.37 | 30.1 | 33.1 | 6.26 | 22.2 | – | –
B3 | no binding | no binding | no binding | no binding | 7.57 | 4.45 | 19.8 | 4.1 | 3.82 | 41 | 32.2 | 4.61 | 56.7 | 47 | –
B4 | no binding | no binding | no binding | no binding | 12.8 | 4.7 | 20.7 | 4.37 | 5 | 19.5 | 33.7 | 7.91 | 54.2 | – | –
B5 | no binding | no binding | no binding | no binding | – | 2.86 | – | 3.06 | 2.76 | – | – | 3.79 | – | 3.96 | no binding
B6 | no binding | no binding | no binding | no binding | – | 3.31 | – | 3.05 | 4.53 | – | 37.5 | 3.92 | – | 4.53 | no binding
B7 | – | no binding | – | no binding | 26.7 | 143 | – | 4.1 | 21.1 | 14.5 | 34.9 | 4.1 | 8.74 | 46.4 | –
